Reference: the supplement of paper PMC10065799, “High-throughput profiling of sequence recognition by tyrosine kinases and SH2 domains using bacterial peptide display” (eLife, 2023)
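Note: 11-residue human phosphosite peptides and single-mutation variants displayed on the E. coli surface, counted by deep sequencing, each peptide's frequency after selection divided by its frequency in the unselected input library; frequency after pTyr selection over input frequency; kinase dosed for 20-30% of maximal phosphorylation in three min.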

The sequences below were run against EPHB2 (UniProt P29323) (assay: phosphorylation enrichment, bacterial display (enrichment ratio); higher = better substrate or ligand; peptides without Tyr show the background).
Chain of EPHB2 (P29323 whole entry, looked up): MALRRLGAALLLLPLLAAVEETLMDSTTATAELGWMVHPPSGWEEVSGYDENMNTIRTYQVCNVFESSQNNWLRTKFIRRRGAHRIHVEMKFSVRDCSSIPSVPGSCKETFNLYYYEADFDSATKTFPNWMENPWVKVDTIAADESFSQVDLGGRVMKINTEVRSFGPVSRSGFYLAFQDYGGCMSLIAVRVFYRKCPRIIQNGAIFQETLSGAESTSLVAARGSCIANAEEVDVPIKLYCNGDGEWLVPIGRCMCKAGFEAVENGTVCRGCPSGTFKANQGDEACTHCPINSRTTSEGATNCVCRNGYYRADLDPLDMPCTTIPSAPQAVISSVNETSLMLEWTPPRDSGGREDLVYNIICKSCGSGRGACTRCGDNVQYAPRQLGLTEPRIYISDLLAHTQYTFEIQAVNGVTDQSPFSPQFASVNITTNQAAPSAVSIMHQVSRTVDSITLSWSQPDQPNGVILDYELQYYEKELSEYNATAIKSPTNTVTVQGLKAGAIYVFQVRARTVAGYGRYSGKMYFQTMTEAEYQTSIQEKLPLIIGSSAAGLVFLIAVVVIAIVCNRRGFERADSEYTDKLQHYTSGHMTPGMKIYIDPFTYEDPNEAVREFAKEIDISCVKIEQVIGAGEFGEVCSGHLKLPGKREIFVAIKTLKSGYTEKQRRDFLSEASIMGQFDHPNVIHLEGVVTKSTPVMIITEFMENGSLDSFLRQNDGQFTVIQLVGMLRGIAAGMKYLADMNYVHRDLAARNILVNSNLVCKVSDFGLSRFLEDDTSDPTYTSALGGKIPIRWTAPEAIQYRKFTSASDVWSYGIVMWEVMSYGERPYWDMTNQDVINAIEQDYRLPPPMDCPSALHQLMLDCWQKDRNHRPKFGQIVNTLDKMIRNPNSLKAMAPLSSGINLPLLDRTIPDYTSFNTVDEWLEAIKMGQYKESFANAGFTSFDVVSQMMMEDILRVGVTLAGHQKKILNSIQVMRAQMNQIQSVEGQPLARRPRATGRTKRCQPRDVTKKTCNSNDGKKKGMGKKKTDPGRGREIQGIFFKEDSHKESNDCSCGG
In the case of SFGMVYEGNAR [INSR_Y1038], the phosphorylation enrichment is reported as 0.413.
With NKPTVYGVSPN [ABL1_Y226] the phosphorylation enrichment was 0.373.
GQAPGYSYTAA [CYCS_Y47] was tested, and the phosphorylation enrichment was 0.5.
With LERFIYNPEEF [HLA-DPB1_Y59_R61P_YF] the phosphorylation enrichment was 0.708.
Sequence LSTPEYGPKLK [TBC1D14_Y46_A43T] has a phosphorylation enrichment of 0.496.
For SCRENYSDSEE [LEMD3_Y258], the phosphorylation enrichment was 0.619.
Work on HRGFLYLAIEY [TEK_Y899_Y897F] yielded a phosphorylation enrichment of 0.541.
Sequence ERIELYELDKK [PMM2_Y145_F144L] has a phosphorylation enrichment of 0.589.
For FPKVRYHWLVL [APTX_Y214_A212V_YF], the phosphorylation enrichment was 0.672.
With CTTIQYNYMCN [TP53_Y234_H233Q] the phosphorylation enrichment was 0.671.
In the case of YETDYYRKGGK [INSR_Y1190], the phosphorylation enrichment is reported as 0.419.
With AHLLQYNHQVK [LGALS3_Y221_R224Q] the phosphorylation enrichment was 0.505.
With VGNAAYQAGSL [STK36_Y1181_P1185S] the phosphorylation enrichment was 0.37.
Sequence PSPMPYASCQM [FOXL2_Y215] has a phosphorylation enrichment of 0.65.
GLDGRYLLRDS [SH2D1A_Y29_S28R] showed a phosphorylation enrichment of 0.448.
RHAASYSSDSE [REPS1_Y116] gave a phosphorylation enrichment of 0.381.
GMTLSYLFWEP [NDUFS8_Y74_R77W] showed a phosphorylation enrichment of 0.737.
With HRGSLYLAIEY [TEK_Y899_Y897S] the phosphorylation enrichment was 0.776.
Sequence SGFESYGSSSF [RPA2_Y9_YF] has a phosphorylation enrichment of 0.432.
RVDRDYVLKST [HTATIP2_Y111_A116T] gave a phosphorylation enrichment of 0.659.
In the case of IKNSGYISRYL [EIF2AK3_Y585], the phosphorylation enrichment is reported as 0.406.
In the case of TDISLYPSGGT [TENM4_Y399_V396I], the phosphorylation enrichment is reported as 0.632.
For QNWELYSEGLG [CNKSR1_Y665_R662W], the phosphorylation enrichment was 5.04.
In the case of AIYWRYSKFFD [SH3PXD2B_Y45_R43W], the phosphorylation enrichment is reported as 0.681.
For PSRKDYETFQS [CTNND2_Y1154_P1159S_YF], the phosphorylation enrichment was 0.792.
MENFIYESMQF [CYP19A1_Y361_R365Q_YF] gave a phosphorylation enrichment of 5.77.
With VLAHKYHGGGG [HBB_Y146_A141V] the phosphorylation enrichment was 0.362.
YFWDGYMPRQY [GSS_Y270_R267W] gave a phosphorylation enrichment of 0.521.
In the case of IDPFIYTPFGS [CYP3A4_Y432_YF], the phosphorylation enrichment is reported as 0.549.

Each sequence was assayed against FGFR1 (UniProt P11362) in the same assay as above.
Chain of FGFR1 (P11362 whole entry, looked up): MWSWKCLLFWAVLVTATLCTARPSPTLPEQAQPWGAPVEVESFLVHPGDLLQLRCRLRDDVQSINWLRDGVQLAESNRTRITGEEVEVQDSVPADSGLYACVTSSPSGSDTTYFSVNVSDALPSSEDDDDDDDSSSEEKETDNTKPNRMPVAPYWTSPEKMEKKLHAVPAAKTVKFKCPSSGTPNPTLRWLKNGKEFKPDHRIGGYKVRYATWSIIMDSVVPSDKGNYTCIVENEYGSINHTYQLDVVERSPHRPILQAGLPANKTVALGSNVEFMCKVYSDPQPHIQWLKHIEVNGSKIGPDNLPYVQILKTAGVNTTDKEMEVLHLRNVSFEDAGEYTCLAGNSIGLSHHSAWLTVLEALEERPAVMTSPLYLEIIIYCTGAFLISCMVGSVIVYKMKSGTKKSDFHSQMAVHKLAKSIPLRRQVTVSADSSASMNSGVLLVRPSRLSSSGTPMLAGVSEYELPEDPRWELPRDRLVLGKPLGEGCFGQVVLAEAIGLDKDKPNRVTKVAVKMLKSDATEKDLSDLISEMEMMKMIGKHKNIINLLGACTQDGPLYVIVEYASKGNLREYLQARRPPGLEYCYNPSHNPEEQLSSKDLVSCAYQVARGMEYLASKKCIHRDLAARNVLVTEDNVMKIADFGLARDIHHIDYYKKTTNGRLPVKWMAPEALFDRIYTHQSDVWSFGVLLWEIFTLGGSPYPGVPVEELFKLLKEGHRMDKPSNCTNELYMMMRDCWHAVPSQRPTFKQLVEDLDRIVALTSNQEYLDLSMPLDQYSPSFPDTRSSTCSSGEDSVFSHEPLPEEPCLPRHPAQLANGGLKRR
SFGMVYEGNAR [INSR_Y1038] gave a phosphorylation enrichment of 0.41.
Work on NKPTVYGVSPN [ABL1_Y226] yielded a phosphorylation enrichment of 0.376.
In the case of GQAPGYSYTAA [CYCS_Y47], the phosphorylation enrichment is reported as 0.43.
Work on LERFIYNPEEF [HLA-DPB1_Y59_R61P_YF] yielded a phosphorylation enrichment of 0.934.
Work on LSTPEYGPKLK [TBC1D14_Y46_A43T] yielded a phosphorylation enrichment of 0.465.
For SCRENYSDSEE [LEMD3_Y258], the phosphorylation enrichment was 0.547.
Sequence HRGFLYLAIEY [TEK_Y899_Y897F] has a phosphorylation enrichment of 0.549.
For ERIELYELDKK [PMM2_Y145_F144L], the phosphorylation enrichment was 0.481.
FPKVRYHWLVL [APTX_Y214_A212V_YF] showed a phosphorylation enrichment of 0.428.
CTTIQYNYMCN [TP53_Y234_H233Q] gave a phosphorylation enrichment of 0.556.
Work on YETDYYRKGGK [INSR_Y1190] yielded a phosphorylation enrichment of 0.522.
With AHLLQYNHQVK [LGALS3_Y221_R224Q] the phosphorylation enrichment was 0.579.
For VGNAAYQAGSL [STK36_Y1181_P1185S], the phosphorylation enrichment was 0.552.
Work on PSPMPYASCQM [FOXL2_Y215] yielded a phosphorylation enrichment of 0.671.
Sequence GLDGRYLLRDS [SH2D1A_Y29_S28R] has a phosphorylation enrichment of 0.531.
In the case of RHAASYSSDSE [REPS1_Y116], the phosphorylation enrichment is reported as 0.513.
GMTLSYLFWEP [NDUFS8_Y74_R77W] was tested, and the phosphorylation enrichment was 4.73.
Work on HRGSLYLAIEY [TEK_Y899_Y897S] yielded a phosphorylation enrichment of 0.581.
SGFESYGSSSF [RPA2_Y9_YF] showed a phosphorylation enrichment of 0.443.
RVDRDYVLKST [HTATIP2_Y111_A116T] gave a phosphorylation enrichment of 0.526.
With IKNSGYISRYL [EIF2AK3_Y585] the phosphorylation enrichment was 0.513.
For TDISLYPSGGT [TENM4_Y399_V396I], the phosphorylation enrichment was 0.457.
For QNWELYSEGLG [CNKSR1_Y665_R662W], the phosphorylation enrichment was 0.744.
AIYWRYSKFFD [SH3PXD2B_Y45_R43W] gave a phosphorylation enrichment of 0.57.
PSRKDYETFQS [CTNND2_Y1154_P1159S_YF] gave a phosphorylation enrichment of 0.769.
Work on MENFIYESMQF [CYP19A1_Y361_R365Q_YF] yielded a phosphorylation enrichment of 0.888.
With VLAHKYHGGGG [HBB_Y146_A141V] the phosphorylation enrichment was 0.349.
YFWDGYMPRQY [GSS_Y270_R267W] gave a phosphorylation enrichment of 10.8.
IDPFIYTPFGS [CYP3A4_Y432_YF] was tested, and the phosphorylation enrichment was 0.584.
